In a protein production outcome set (Wang et al. 2014):

Assay: label from the status in PepcDB records
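Note: failed if final PepcDB status was selected cloned or expressed and not failed if soluble or beyond.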

Sequence | protein production
MAYNSNSNNNNNNIVVVFDFDKTIIDVDSDNWVIDELGFTDLFNQLLPTMPWNTLMDRMMKELHDQGKTIEEIKQVLRTIPIHPRVVPAIKSAHDLGCELRIVSDANMFFIETIVEHLGISELFSEINSNPGYVDERGTLKISPYHDFTKSPHSCSCGTCPPNMCKGLIIERIQQSLAKEGKKKMIYLGDGAGDYCPSLKLNTEDYVMPRKNFPVWDLISQNPMLIKAAIREWTDGQSMEMILIGTIEEIRLEEEKEKMLTSAENNCKMQTISIGINNVHHEPILPRALRVSQSS | failed
MQFYNRQKELKLMELLDQGKPSFFVITGKRRVGKTELIKQFTRNRKALYLFVDSNKSINILMDEFDRLLKEKLDLPDYIKVDEPENFLKFITSYDRDLVIAIDEFQRFQKVYPSFITQLQRYWDMKPDNCRIFLIVSGSSIGMIRKIFIEEQAPLFKRADNILTIKPFTVLETFEMLDGMGIKNPEEKLNLYFLFGGTVYYYRLFEKYQCTGFDDALEKLIFSEFAPLKNEVREILIEEFGKEHSTYYEIISAISQGRCSMSEISDMTHVSSSSLSPYFYDLIDLLGVVEHRIPVMDNPEKSKRGRYFLKDNFFRFYGRFIYPMYSRYMAGNYSPMLEKVRKEWQSYTGKIFEDIVHELLVEKMISDYPELGSWWNRKGDEIDILGVDHRGRKSLVIEVKNKELAENEAREILELTLDKTKLVKGISGQKLKVGIVAQKVKGRKNLEDDGFLVWELEELIPLEHHHHHH | failed
MNAPSLKEENALTITRVFDAPANLVFKVWTTPEHLARWWGPKGFTVPAITTDFREGGAWRGCIRSPEGQDYWAHGIYREIVAPSRIVLSFVWEEEGAIDTLITVTLEDVAGGTRLTFHQAPFTSAESRDSHAEGWSECMDRLVSYVAARKEEVQ | failed
MEEVLKLKIPASTANLGVGFDSIGMALDKYLHMSIRKIERSNWEFLYYSSELEGLPKDENNYIYQTALNVAHKYNVTLPSLQIEMRSDIPLARGLGSSASALVGALFIANYFGNIQLSKYELLQLATEIEGHPDNVAPTIYGGLIAGFYNPITKIT | failed
MTQKRKLDAASPGDPHDFAADGIERQTLRMVEQALRADRLMLAWQPVVVASEAARTVFHEGLIRVLDETGRIIPARDFMSAVETQDLGRLIDCASLEKGLATLARHPGLRLSINMSARSIGHGRWMQILQGALRADPNLGPRLILEITESSAMEVPELVLPFMDALQRAGISFALDDFGAGFTAFRYLKDFFFDIIKIDGQFIRNIHRDPDNQVLTQAMLSVGRHFDMLTVAETVETAEEAEWLRAAGVDCLQGYLFGRPCTQPAWQATGTRLIA | failed
MSLARQVTAFNTGWQFKKGPFATDPMRAASQWDGKWETVEIPHTWNAMDMQVQSGSFYEGAGYYRKTQFFPHDLEGKRVFLRFEGVGACAEVYVNGKLAGTHKGGYSAFACEIGTALKLGAENEIIVKADNKARPDVIPVNQNLFGVYGGIYRPVWLIVTEQNNITVTDCASPGVYITQKDVSKKSADITVKVKLDNAGLQPAAVTLENTIYTQEGQKVGTHSRSFDLSPQGTQTYLSTFKLKNPHLWQGRKDPYLYKVVCRLMADGKVIDEVVQPLGVRKYEIVAGKGFFLNGEKYSMYGVTRHQDWWGLGSALKNEHHDFDLAAIMDVGATTVRFAHYQQSDYLYSRCDTLGLIIWAEIPCVNRVTGYETENAQSQLRELIRQSFNHPSIYVWGLHNEVYQPHEYTAALTRSLHDLAKTEDPDRYTVSVNGYGHMDHPVNLNADIQGMNRYFGWYEKKIQDIKPWVEQLEKDYPYQKLMLTEYGADANLAHQTEYLGDALNWGKPFYPETFQTKTHEYQWSIIKDHPYIIASYLWNMFDFAVPMWTRGGVPARNMKGLITFDRKTKKDSYFWYKANWSEEPVLYLTQRRNADREKRTTAVTVYSNIGTPKVYLNGQELSGIRNGYTDVHYVFDNVSLADGKNILKAVVSTKGKEYTDEIEWNYSGEKNREIDSYENKNEHSGEGHHHHHH | not failed
MDKRIDLTEGKITSNLIKLSIPIMATSFIQMAYNMADMIWVGRIGSNAVAAVGTAGFFPWLGMAFVMISKVGAEIKVAQSLGRNDIDSTKDYIKSAFQINIILAIIYSIILLLFNSQLIGFFDLGDAEVIKMAKTYLIAVALGMIFNFLNPVFTAVFTGSGDSRIPFIANTIGLIFNIVFDPILIFGIGIFPEMGVLGAALATVLAQVIVTVTFLYIMIKSKAEYLKINILSGIKINCMKTLFHIGLPAALQSGLFTVFSMFIGKIVAVFGPVPIAVQKVGSQVEAIAWMTAGGISTALSTFVGQNYGAGKLKRIVKGFNITMIISLIVGVFASLVLIFFGEEIFRIFIPEAQAIEQGTVYLKILGYCQILVCVEITTTGAFNGLGRTYIPSIISILLTGARIPMAYIMCKPEFLGLEGIWWAISITGALKGVVVYAIYRYLYKKNKLFKVYKDENGEECISI | failed
MWHSIEQAISVETGKSFYISEKKEISTRPASSSSFTCSYDNKEPPPNLSFKITDGHRSYFLKINNKDYLENFQAEAYSLKQLNSLANIASPNVTAIGTSLDKSFLVLDYIDFSKAKPMLWYQLGQQLAQMHYENRHGQFGWQHDNFIGSTIQPNHWSSNWTTFFSDQRIAWQLQLLSERSIMLGNIEHITQVCHDALLHHQVSPCLVHGDLWQGNTGFSGEKAMIFDPACYYGDREVDIAMTELFGHFPDDFYHGYQAEYPLDDGYEQRKLVYNFYHILNHANIFGGIYIDQAKATLSRIMSLPLHLEHHHHHH | failed
MGFLQPRLPDIDLAEWSQGSRSQKIRPMAQHWAEVGFGTPVLLHLFYVAKILLYVLVGWLIVLTTKGIDGFTDAAAWYAEPIVFEKVVLYTMLFEVIGLGCGFGPLNNRFFPPMGSILYWMRFGTIRLPPWPDRVPWTRGTKRKPVDVALYALLVMMLLSALFTDGAGPIPELGTTVGLLPAWQIVLILLLLGVLGLRDKVIFLAARGEVYATLTVTFLFGRLNGIDMIVAAKLVFLVIWIGAATSKLNRHFPFVISTMMSNNPLFRPRFIKRMFFKKFPGDLRPGLLSRIVAHVSTVIEMCVPVVLFVAHGGWPTVVAATIMVCFHLGILTAIPMGVPLEWNVFMIFGVLSLFVGHACLGLADVKNPVPLAILIAVVAGIVIAGNVFPRKISFLAAMRYYAGNWDTTLWCIKPSAEDKINRGIVAIASMPAAQLERFYGKDRAQIPMYLGYAFRAMNSHGRALFTLAHRAMAGHDEDDYVITDGERVCSTAVGWNFGDGHLHNEQLIAAMQQRCGFQPGEVRVVLLDAQPIHRQTQEYRLVDAATGEFERGYVRVADMVNRQPWDDDVPVHVLPG | failed
MLKKEYLKNPYLVLFAMIILAYVFSVLCRFYWIWWASEFNEYFFNNQLMIISNDGYAFAEGARDMIAGFHQPNDLSYYGSSLSTLTYWLYKITPFSFESIILYMSTFLSSLVVIPIILLANEYKRPLMGFVAALLASVANSYYNRTMSGYYDTDMLVIVLPMFILFFMVRMILKKDFFSLIALPLFIGIYLWWYPSSYTLNVALIGLFLIYTLIFHRKEKIFYIAVILSSLTLSNIAWFYQSAIIVILFALFALEQKRLNFMIIGILGSATLIFLILSGGVDPILYQLKFYIFRNDESANLTQGFMYFNVNQTIQEVENVDFSEFMRRISGSEIVFLFSLFGFVWLLRKHKSMIMALPILVLGFLALKGGLRFTIYSVPVMALGFGFLLSEFKAILVKKYSQLTSNVCIVFATILTLAPVFIHIYNYKAPTVFSQNEASLLNQLKNIANREDYVVTWWDYGYPVRYYSDVKTLVDGGKHLGKDNFFPSFALSKDEQAAANMARLSVEYTEKSFYAPQNDILKSDILQAMMKDYNQSNVDLFLASLSKPDFKIDTPKTRDIYLYMPARMSLIFSTVASFSFINLDTGVLDKPFTFSTAYPLDVKNGEIYLSNGVVLSDDFRSFKIGDNVVSVNSIVEINSIKQGEYKITPIDDKAQFYIFYLKDSAIPYAQFILMDKTMFNSAYVQMFFLGNYDKNLFDLVINSRDAKVFKLKI | failed
MSEEKNTAIDLKNLKAGGFIKERGKDLFTVRLRVPGGRLPVGRLKKIAEVAEKYGQGMVHLSVRQSVELININFRDFDAVVAELGEGTQKVASCGARVRVPTACGGCEYNPNGLVDTQKSALEVDEKLFGIPTGHHKFKVGFAGCPFDCPKSATNDVGFQGAVWPVLSADHCIGCGLCAKSCTEDAIAMGDNGKPLFIPANCLYCGDCLKVCPTEAWRAGKKGYTVRIGGKWGRRPLVGTLFAEFLPEDQVVDFIAAVLGWYQEKAEGQGRIRLGDVIRAQGPEALLARLRERFPAFVVNATIAPQAIATQVGKEKQAHDNRLEHHHHHH | not failed
MQDRMLRRVFILAGIALLLWVLYLLKPVVIPFVGAFLIAYLFSPLVEKLSKIGLPRWLSISIVFIGIGVLLTWAMWYVVPLVWQQLMYARDSIPSGIHWVNATFLPWVSHTFNVERMEIDTDQISTVVMEYIQTNYSADSIQTMALRLAQSGLNFIQIGGTIVLIPIISFYFLLDWDRMLNSLRRLIPRPYEESTLRIVYECHSVLGAFVKGQFLVMLLLGIVYAVGLQLIGLEVGLIIGMVAGLASIIPYLGFAVGIIAAVIATVFQFGVDWMQLALVGVVFMIGQAVEGYILQPFLLGDKIGLSPVAVVFAVLAGAQLAGFLGMLIALPVAAVIVVLLRHLREAYEHTQMYAGTATVVSTGNGEHISIETENLDLDIEVKNPQDTDTSIDNDRK | failed
MARAVHRSGLVALGIATALMASCAFAAKDVVVAVGSNFTTLDPYDANDTLSQAVAKSFYQGLFGLDKEMKLKNVLAESYTVSDDGITYTVKLREGIKFQDGTDFNAAAVKANLDRASDPANHLKRYNLYKNIAKTEAIDPTTVKITLKQPFSAFINILAHPATAMISPAALEKYGKEIGFYPVGTGPYELDTWNQTDFVKVKKFAGYWQPGLPKLDSITWRPVADNNTRAAMLQTGEAQFAFPIPYEQATLLEKNKNIELMASPSIMQRYISMNVTQKPFDNPKVREALNYAINRPALVKVAFAGYATPATGVVPPSIAYAQSYKPWPYDPVKARELLKEAGYPNGFSTTLWSSHNHSTAQKVLQFTQQQLAQVGIKAQVTAMDAGQRAAEVEGKGQKESGVRMFYTGWSASTGEADWALSPLFASQNWPPTLFNTAFYSNKQVDDFLAQALKTNDPAEKTRLYKAAQDIIWQESPWIPLVVEKLVSAHSKNLTGFWIMPDTGFSFEDADLQ | not failed
MKEIRIILMGTGNVGLNVLRIIDASNRRRSAFSIKVVGVSDSRSYASGRNLDISSIISNKEKTGRISDRAFSGPEDLMGEAADLLVDCTPASRDGVREYSLYRMAFESGMNVVTANKSGLANKWHDIMDSANQNSKYIRYEATVAGGVPLFSVLDYSILPSKVKRFRGIVSSTINYVIRNMANGRSLRDVVDDAIKKGIAESNPQDDLNGLDAARKSVILVNHIFGTEYTLNDVEYSGVDERSYNANDRLVTEVYVDDRRPVAVSRIISLNKDDFLMSIGMDGLGYQIETDSNGTVNVSDIYDGPYETAGAVVNDILLLSKVQK | failed
KNVNNAEEYWDVIDLRVYPGKNGYFELYDDDGITYEYEKGKYYIIPITWDEDKQELTIGKKRGELEMSKKIIKIIWVEKGKGIEHTKPDVEIEYNGKETITVKRG | failed
SSTHGSRFPLCGGRRDHKGLTHIFNPPPKRFESILEGLFGPALLKDLSLFKDCEPESISDWTFDENCLFCCLRRDKVKGHLVGLDEPASGAGQEALLKQEQAKIIRFERQAEEFLNAVFYRKDSPWVSDPNIPLVAREIMQRMIQQFAAEYTSKNSSTQDPSQPNSTKNQSLPKASPVTTSPTAATTQNPVLSKLLMADQDSPLDLTVRKSQSEPSEQDGVLDLSTKKSPCAGSTSLSHSPGCSSTQGNGRPGRPSQYRPDGLRSGDGVPPRSLQDGTREGFGHSTSLKVPLARSLQISEELLSRNQLSTAASLGPSGLQNHGQHLILSREASWAKPHYEFNLSRMKFRGNGALSNISDLPFLAENSAFPKMALQAKQDGKKDVSHSSPVDLKIPQVRGMDLSWESRTGDQYSYSSLVMGSQTESALSKKLRAILPKQSRKSMLDAGPDSWGSDAEQSTSGQPYPTSDQEGDPGSKQPRKKRGRYRQYNSEILEEAISVVMSGKMSVSKAQSIYGIPHSTLEYKVKERLGTLKNPPKKKMKLMRSEGPDVSVKIELDPQGEAAQSANESKNE | not failed
ELQRRKLLQENILNSIPLPIHIKDVEDDFRYVFCNEESMRMFGTHEGETVCSVLDSEQAERMQKTDLEVFTTGKPYFGVERIILKDGRSYDTIVRKNIIYDGTKRLLLNIRWD | failed
